Changes are numbered by the printed parent chain.
T1: cynomolgus MSLN-His-Avi (cynomolgus, single biotin (BirA) in the biotinylated form)
T1 construct: Monomeric, made in HEK293-6E; also called cMSLN-His-Avi; cyno MSLN-His-Avi
T1 chain: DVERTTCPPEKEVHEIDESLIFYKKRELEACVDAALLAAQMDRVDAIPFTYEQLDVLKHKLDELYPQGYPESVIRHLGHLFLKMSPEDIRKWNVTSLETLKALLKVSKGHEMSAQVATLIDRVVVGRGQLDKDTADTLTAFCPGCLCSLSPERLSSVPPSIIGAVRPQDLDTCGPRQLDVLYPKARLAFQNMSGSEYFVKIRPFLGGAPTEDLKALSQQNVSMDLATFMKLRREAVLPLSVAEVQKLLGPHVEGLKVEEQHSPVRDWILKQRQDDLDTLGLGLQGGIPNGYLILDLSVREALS

B1: FS22-053-008-AA/FS28-024-051 mAb^2 (bispecific antibody, human IgG1, kappa, L234A L235A, V domains shown)
VH: EVQLLESGGGLVQPGGSLRLSCAASGFTLSYSSMSWVRQAPGKGLEWVSFITPSTGYTHYADSVKGRFTISRDNSKNTLYLQMNSLRAEDTAVYYCARRALIFDYWGQGTLVTVSS
VL: EIVLTQSPGTLSLSPGERATLSCRASQSVSSSYLAWYQQKPGQAPRLLIYGASSRATGIPDRFSGSGSGTDFTLTISRLEPEDFAVYYCQQASSYPLTFGQGTKVEIKR
notes: also called FS28-024-51
B2: FS22-053-008-AA/FS28-256 (bispecific antibody, human IgG1, kappa, L234A L235A, V domains shown)
VH: EVQLLESGGGLVQPGGSLRLSCAASGFTFTNTYMSWVRQAPGKGLEWVSNISPTYSTTNYADSVKGRFTISRDNSKNTLYLQMNSLRAEDTAVYYCARYNSYQGGLDYWGQGTLVTVSS
VL: B1 VL with A92S, S93Y, S94Y, L97I
B3: FS22-053-008-AA/FS28-024-053 mAb^2 (bispecific antibody, human IgG1, kappa, L234A L235A, V domains shown)
VH: B1 VH with I102V
VL: B1 VL
notes: also called FS28-024-53
B4: FS22-053-008-AA/FS28-024-060 mAb^2 (bispecific antibody, human IgG1, kappa, L234A L235A, V domains shown)
VH: B1 VH with I102W
VL: B1 VL
B5: FS22-053-008-AA/FS28-024-052 mAb^2 (bispecific antibody, human IgG1, kappa, L234A L235A, V domains shown)
VH: B1 VH with I102L
VL: B1 VL
notes: also called FS28-024-52
B6: FS22-053-008-AA/FS28-026 mAb^2 (bispecific antibody, human IgG1, kappa, L234A L235A, V domains shown)
VH: EVQLLESGGGLVQPGGSLRLSCAASGFTFSNYAMTWVRQAPGKGLEWVSSITPYYSKTDYADSVKGRFTISRDNSKNTLYLQMNSLRAEDTAVYYCARNWYRFDYWGQGTLVTVSS
VL: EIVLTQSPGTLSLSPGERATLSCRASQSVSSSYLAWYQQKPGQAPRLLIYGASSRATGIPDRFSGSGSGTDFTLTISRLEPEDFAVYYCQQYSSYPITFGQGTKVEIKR
notes: also called FS28-026 (in mAb^2 format)
B7: FS22-053-008-AA/FS28-091 mAb^2 (bispecific antibody, human IgG1, kappa, L234A L235A, V domains shown)
VH: B6 VH with S30T, T35S, T52K, Y55D, S56G, K57N, D59Y, W100R, Y101W, R102V
VL: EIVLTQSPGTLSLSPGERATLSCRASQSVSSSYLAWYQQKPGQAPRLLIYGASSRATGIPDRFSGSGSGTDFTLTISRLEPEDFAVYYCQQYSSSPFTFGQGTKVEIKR
notes: also called FS28-091 (in mAb^2 format)
B8: FS22-053-008-AA/FS28-256-001 mAb^2 (bispecific antibody, human IgG1, kappa, L234A L235A, V domains shown)
VH: B2 VH with N31E
VL: B1 VL with A92H, S93N, S94Q, L97N
B9: FS22-053-008-AA/FS28-256-005 mAb^2 (bispecific antibody, human IgG1, kappa, L234A L235A, V domains shown)
VH: B2 VH with N31E
VL: B1 VL with S93L, S94G, L97H
B10: FS22-053-008-AA/FS28-256-018 mAb^2 (bispecific antibody, human IgG1, kappa, L234A L235A, V domains shown)
VH: B2 VH with N31Q, S101A, G104I
VL: B1 VL with A92S, S93Y, S94Y, L97I
B11: FS22-053-008-AA/FS28-256-014 mAb^2 (bispecific antibody, human IgG1, kappa, L234A L235A, V domains shown)
VH: B2 VH with N31D, S101A, Q103A, G104A
VL: B1 VL with A92S, S93Y, S94Y, L97I

Molecular target: T2, human MSLN-His-Avi (human, UniProt Q13421 296-598, single biotin (BirA) in the biotinylated form)
T2 construct: Monomeric, made in HEK293-6E; Used both immobilised and in solution; also called hMSLN-His-Avi; biotinylated hMSLN-His-Avi
Test: ratio of the two SPR KD
Description: (§1) Human MSLN-His-Avi was immobilised on flow cell 2 on a CM5 Series S BIAcore sensor chip (GE Healthcare, BR100530) using an amine coupling kit (GE Healthcare, BR10050) to approximately 200 response units (RU). Flow cell 1 was left blank for subtraction. HEK293-6E supernatants or purified proteins were adjusted with HBS-EP+(GE Healthcare) to approximately 50 nM anti-MSLN mAb per sample. Samples were injected over flow cell 1 and 2 for 2.5 min at 30 μl/min and then allowed to dissociate in HBS-EP buffer for 2.5 min. Regeneration was achieved by injecting 10 mM glycine pH 1.5 (GE Healthcare, BR100354) for 30 seconds at a rate of 30 μl/min. Subtracted data (flow cell 2−flow cell 1) were analysed using BIAevaluation 3.2 Software (GE Healthcare).
(§2) Binding of the selected anti-MSLN clones in mAb² format, to recombinant human and cyno MSLN-His-Avi antigen was measured by SPR using a Biacore T200 processing unit (GE Healthcare). As previously described, it was desirable to bind more strongly to immobilised antigen than to soluble antigen. To assess the binding properties of the clones, binding kinetics to immobilised MSLN antigen were determined as described in section 2.1.2 and compared to the kinetics obtained when MSLN antigens in solution bound to captured clones.
(§3) For the capture experiments, clones in mAb² format were captured using a BIAcore sensor series S chip Protein G (GE Healthcare, 29179315). mAb² diluted in HBS-EP buffer (GE Healthcare, BR100188) containing 900 mM […] at 1 μg/ml, were injected individually on flow cell 2, 3 and 4 at 30 μl/min to achieve a response of approximately 100 RU. G1-AA/HeID1.3 was captured on flow cell 1. The recombinant human and cyno MSLN-His-Avi (section 1.1), diluted in HBS-EP buffer containing 900 mM […], were injected on flow cell 1, 2, 3 or 4 as appropriate at a concentration range of 1000 nM to 0.051 nM with 3-fold dilutions for 5 minutes at 70 μl/min and then allowed to dissociate in buffer for 5 minutes. Regeneration was achieved by injecting 10 mM glycine pH1.5 (GE Healthcare, BR100354) and surfactant P20 (GE Healthcare, BR-1000-54) for 20 seconds at a rate of 30 μl/min.

T2 sequence (Q13421 other isoform, or with tags, fused parts or gaps): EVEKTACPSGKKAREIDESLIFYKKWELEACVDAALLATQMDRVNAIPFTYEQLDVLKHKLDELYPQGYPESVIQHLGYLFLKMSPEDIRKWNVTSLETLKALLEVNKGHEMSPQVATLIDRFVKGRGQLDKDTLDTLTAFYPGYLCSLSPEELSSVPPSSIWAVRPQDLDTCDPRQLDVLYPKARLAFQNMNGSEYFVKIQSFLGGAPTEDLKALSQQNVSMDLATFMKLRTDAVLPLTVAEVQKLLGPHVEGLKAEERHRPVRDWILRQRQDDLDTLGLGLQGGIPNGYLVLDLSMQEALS

Row | Ratio of KD in solution/immobilised for human MSLN-His-Avi | Binder
1 | 154 | B1
2 | 37.5 | B2
3 | 55.3 | B3
4 | 78.6 | B4
5 | 92.3 | B5
6 | 5000 | B6
7 | 580 | B7

Molecular target: T3, cell surface human mesothelin (MSLN) (human, UniProt Q13421 296-598)
T3 construct: whole, on cells; also called cell surface MSLN
Test: flow cytometry, NCI-H226 cells
Description: (§4) Cells were centrifuged at 1200 rpm for 3 min and resuspended in ice cold FACS buffer made up of DPBS (Life Technologies, 14190169) and 1% BSA (Sigma-Aldrich, A7906) at 2×10⁶ cells/ml and 50 μl per well was seeded in a 96-well V-bottom plate (Costar, 3894). All mAbs tested were diluted in FACS buffer in 120 μl at a concentration range of 0.01-200 nM (4-fold dilutions). The NCI-H226 cells were then centrifuged, supernatant removed and cells resuspended in 100 μl of each mAb dilution and incubated at 4° C. for 45 min. Cells were washed twice by centrifugation with 150 μl FACS buffer, resuspended in 100 μl containing goat anti-human IgG (γ-chain specific) F(ab′)2 fragment-R-Phycoerythrin antibody (Sigma, P8047) diluted 1:1000 in FACS buffer and incubated at 4° C. for 45 min. The cells were washed once with 150 μl FACS buffer and then with 150 μl DPBS, resuspended in 150 μl DPBS containing DAPI (Biotium, 40043) at 1:10.000 and read on the BDCantoll or iQue (Intellicyt). Data was analysed using FlowJo v10 to determine the signal geometric mean for PE for live cells in each well.
(§5) Cell binding assays using OVCAR-3 cells were performed similarly to the assays described in section 2.4. The effect of the presence of soluble MSLN was tested by pre-incubating the antibodies in the presence or absence of soluble MSLN before mixing with cells and determining if the pre-incubation affected binding to MSLN on the cell surface. […] 60 μl from each well was then added to either FACS buffer alone or to FACS buffer containing 60 μl of 40 nM recombinant hMSLN (R&D systems, 3265-MS-050) (to give a final concentration of 20 nM hMSLN) and pre-incubated at room temperature for 1 hour before 100 μl was added to the cells. Bound antibody was detected using goat anti-human anti-Fcγ Alexa-Fluor 488 (Jackson Immunoresearch, 109-546-098).
(§6) The method used was exactly as described in section 3.1.4.

T3 sequence (Q13421 other isoform, or with tags, fused parts or gaps limits assumed): as the sequence (Q13421 other isoform, or with tags, fused parts or gaps) above

Row | EC50 [nM] | Emax (MFI) | Binder
8 | 0.78 | 801000 | B1
9 | 15.8 | 276000 | B2
10 | 1.19 | 914000 | B3
11 | 4.98 | 703000 | B8
12 | 1.46 | 1.01e+06 | B4
13 | 1.32 | 958000 | B5
14 | 5.3 | 760000 | B9
15 | 6.98 | 637000 | B10
16 | 3.11 | 771000 | B11
17 | 1.91 | 730000 | B6
18 | 2.72 | 740000 | B7

Molecular target: T2, human MSLN-His-Avi
Test: SPR (Biacore), MSLN immobilised, mAb^2 injected
Description: as §1, §2

Row | Kd [nM] | Binder
19 | 0.31 | B1
20 | 23.7 | B2
21 | 0.89 | B3
22 | 0.07 | B4
23 | 0.36 | B5
24 | 0.14 | B6
25 | 1.1 | B7

Molecular target: T3, cell surface human mesothelin (MSLN)
Test: flow cytometry, NCI-H226 cells + 20 nM soluble MSLN
Description: as §4, §5, §6

Row | EC50 [nM] | Emax (MFI) | Binder
26 | 7.47 | 1.1e+06 | B1
27 | 39.4 | 351000 | B2
28 | 7.52 | 965000 | B3
29 | 5.36 | 608000 | B8
30 | 25.7 | 1.23e+06 | B4
31 | 4.28 | 986000 | B5
32 | 3.91 | 654000 | B9
33 | 4.6 | 494000 | B10
34 | 2.72 | 616000 | B11
35 | 2.65 | 702000 | B6
36 | 3.97 | 745000 | B7

Molecular target: T2, human MSLN-His-Avi
Test: SPR (Biacore), mAb^2 captured on Protein G, MSLN in solution injected
Description: as §2
as §3, with “μl/min. Subtracted data (flow cell 2−flow cell 1, flow cell 3−flow cell 1, or flow cell 4−flow cell 1) were analysed using BIAevaluation 3.2 Software (GE Healthcare) to identify binding using the model 1:1 binding, local Rmax and with refractive index (RI) constant 0.” for “μl/min.”

Row | Kd [nM] | Binder
37 | 47.5 | B1
38 | 889 | B2
39 | 49.2 | B3
40 | 5.2 | B4
41 | 33.1 | B5
42 | 700 | B6
43 | 615 | B7

Molecular target: T1, cynomolgus MSLN-His-Avi
Test: as above
Description: as §2
as §3, with “μl/min. Subtracted data (flow cell 2−flow cell 1, flow cell 3−flow cell 1, or flow cell 4−flow cell 1) were analysed using BIAevaluation 3.2 Software (GE Healthcare) to identify binding using the model 1:1 binding, local Rmax and with refractive index (RI) constant 0.” for “μl/min.”

Row | Kd [nM] | Binder
44 | 148 | B1
45 | 738 | B2
46 | 78.3 | B3
47 | 266 | B4
48 | 185 | B5
49 | 886 | B6
50 | > 1000 | B7

Reference: patent US20220267421A1 (INVOX PHARMA, published 2022)
